From patent publication US20200223930A1 come the findings set out here.

The target of this test is CD33 (UniProt P20138). As to the kind of experiment: flow cytometry, hybridoma supernatant on EL4-CD33 cells, rat anti-mouse IgG APC. Background: Flow cytometry measures light scatter and fluorescence of single cells or particles in a stream.
Sequence of UniProt P20138 (P20138 18-364 limits assumed): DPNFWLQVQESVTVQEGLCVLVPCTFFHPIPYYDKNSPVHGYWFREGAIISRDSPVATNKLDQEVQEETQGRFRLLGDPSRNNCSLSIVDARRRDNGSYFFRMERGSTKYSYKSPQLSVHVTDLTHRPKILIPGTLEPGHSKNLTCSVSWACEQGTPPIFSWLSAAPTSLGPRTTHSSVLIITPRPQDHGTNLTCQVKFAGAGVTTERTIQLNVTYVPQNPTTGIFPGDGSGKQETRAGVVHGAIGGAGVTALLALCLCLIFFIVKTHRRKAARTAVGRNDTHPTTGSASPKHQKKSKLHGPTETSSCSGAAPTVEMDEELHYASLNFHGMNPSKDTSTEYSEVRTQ

B1: 3F5 (antibody, V domains shown)
VH: EVQLQQSGPELVKPGSSVKISCKASGYTFTDYNMDWVKQSHGKSLEWIGTINPNNGGTSYNQKFKGKATLTVDKSSSTAYMELRSLTSEDSAVYYCARKGYGGNYDYFDYWGQGTTLTVSS
VL: DILLTQSPAILSVSPGERVSFSCRASQSIGTSIHWYQQRTNGSPRLLIKYASESISGIPSRFSGSGSGTDFTLSINSVESEDIADYYCQQSNSWPYTFGGGTKLEIK
The molecule B1 displayed a CD33/APC+ of 52%.
